The source of these data is article PMC3752698.

For this assay, the target named is complement component C1q. Kind of assay: SPR.

B1: soluble SCARF1 protein (receptor)
chain: SELDPKGQHVCVASSPSAELQCCAGWRQKDQECTIPICEGPDACQKDEVCVKPGLCRCKPGFFGAHCSSRCPGQYWGPDCRESCPCHPHGQCEPATGACQCQADRWGARCEFPCACGPHGRCDPATGVCHCEPGWWSSTCRRPCQCNTAAARCEQATGACVCKPGWWGRRCSFRCNCHGSPCEQDSGRCACRPGWWGPECQQQCECVRGRCSAASGECTCPPGFRGARCELPCPAGSHGVQCAHSCGRCKHNEPCSPDTGSCESCEPGWNGTQCQQPCLPGTFGESCEQQCPHCRHGEACEPDTGHCQRCDPGWLGPRCEDPCPTGTFGEDCGSTCPTCVQGSCDTVTGDCVCSAGYWGPSCNASCPAGFHGNNCSVPCECPEGLCHPVSGSCQPGSGSRDT
On to B1, for which the Kd worked out at 124 nM.
